Test results as given in patent US20170023548.

T1: hATP11C-GFP (human ATP11C tagged with GFP at the C-terminus), Q8NB49
T1 chain: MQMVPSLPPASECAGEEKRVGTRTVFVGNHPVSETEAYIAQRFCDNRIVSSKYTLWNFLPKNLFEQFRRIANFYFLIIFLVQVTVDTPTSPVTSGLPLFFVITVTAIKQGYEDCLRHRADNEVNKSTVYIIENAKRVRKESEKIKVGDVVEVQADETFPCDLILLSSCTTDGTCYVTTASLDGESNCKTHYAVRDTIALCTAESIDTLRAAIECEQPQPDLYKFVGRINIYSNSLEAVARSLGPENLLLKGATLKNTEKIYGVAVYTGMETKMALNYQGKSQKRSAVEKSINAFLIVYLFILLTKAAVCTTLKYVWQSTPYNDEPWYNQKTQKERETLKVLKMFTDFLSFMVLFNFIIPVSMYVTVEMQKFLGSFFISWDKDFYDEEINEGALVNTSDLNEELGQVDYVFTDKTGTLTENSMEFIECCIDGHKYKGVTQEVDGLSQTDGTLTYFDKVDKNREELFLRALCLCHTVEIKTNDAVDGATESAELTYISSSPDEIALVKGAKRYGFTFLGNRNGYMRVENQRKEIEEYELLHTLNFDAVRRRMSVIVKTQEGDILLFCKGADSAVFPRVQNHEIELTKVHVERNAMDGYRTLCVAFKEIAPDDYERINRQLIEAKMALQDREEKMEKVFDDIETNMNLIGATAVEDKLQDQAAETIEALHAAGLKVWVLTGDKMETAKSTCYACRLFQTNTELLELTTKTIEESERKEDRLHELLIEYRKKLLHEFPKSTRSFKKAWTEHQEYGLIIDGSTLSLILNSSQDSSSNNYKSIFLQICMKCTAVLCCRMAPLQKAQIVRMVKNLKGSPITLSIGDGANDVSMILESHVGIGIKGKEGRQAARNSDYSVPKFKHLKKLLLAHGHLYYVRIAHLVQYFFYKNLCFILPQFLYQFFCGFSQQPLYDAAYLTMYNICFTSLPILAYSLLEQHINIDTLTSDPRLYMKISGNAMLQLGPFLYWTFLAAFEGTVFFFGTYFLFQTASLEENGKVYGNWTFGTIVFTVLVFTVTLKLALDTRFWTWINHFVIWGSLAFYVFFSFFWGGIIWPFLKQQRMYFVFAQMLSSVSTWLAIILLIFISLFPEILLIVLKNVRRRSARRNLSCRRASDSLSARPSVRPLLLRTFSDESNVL

B1: recombinant human caspase-7 (Biovision) (protein)
chain: AKPDRSSFVPSLFSKKKKNVTMRSIKTTRDRVPTYQYNMNFEKLGKCIIINNKNFDKVTGMGVRNGTDKDAEALFKCFRSLGFDVIVYNDCSCAKMQDLLKKASEEDHTNAACFACILLSHGEENVIYGKDGVTPIKDLTAHFRGDRCKTLLEKPKLFFIQACRGTELDDGIQADSGPINDTDANPRYKIPVEADFLFAYSTVPGYYSWRSPGRGSWFVQALCSILEEHGKDLEIMQILTRVNDRVARHFESQSDDPHFHEKKQIPCVVSMLTKELYFSQ
B2: recombinant human caspase-3 (Biovision) (protein)
chain: SGISLDNSYKMDYPEMGLCIIINNKNFHKSTGMTSRSGTDVDAANLRETFRNLKYEVRNKNDLTREEIVELMRDVSKEDHSKRSSFVCVLLSHGEEGIIFGTNGPVDLKKITNFFRGDRCRSLTGKPKLFIIQACRGTELDCGIETDSGVDDDMACHKIPVEADFLYAYSTAPGYYSWRNSKDGSWFIQSLCAMLKQYADKLEFMHILTRVNRKVATEFESFSFDATFHAKKQIPCIVSMLTKELYFYH
B3: recombinant human caspase-6 (Biovision) (protein)
chain: AFYKREMFDPAEKYKMDHRRRGIALIFNHERFFWHLTLPERRGTCADRDNLTRRFSDLGFEVKCFNDLKAEELLLKIHEVSTVSHADADCFVCVFLSHGEGNHIYAYDAKIEIQTLTGLFKGDKCHSLVGKPKIFIIQACRGNQHDVPVIPLDVVDNQTEKLDTNITEVDAASVYTLPAGADFLMCYSVAEGYYSHRETVNGSWYIQDLCEMLGKYGSSLEFTELLTLVNRKVSQRRVDFCKDPSAIGKKQVPCFASMLTKKLHFFPKSN

Target: T1, hATP11C-GFP (human ATP11C tagged with …)

Protein	cleavage of hATP11C-GFP in solubilized membrane fraction, Western blotting with anti-GFP
B1	hATP11C was cleaved by caspase-3, -6 and -7
B2	hATP11C was cleaved by caspase-3, -6 and -7
B3	hATP11C was cleaved by caspase-3, -6 and -7
